The data set has as its system T1, CN=C(NC)NCCC[C@H](N)C(=O)O.
T1 construct: HEK293 cells stably expressing human CAT1
In words: [3H]SDMA uptake kinetics (Km) and efflux in HEK-CAT1 cells. In kind it is cell-based, Homo sapiens.

Sequence of CAT1 (Homo sapiens) (chain, as listed by the source): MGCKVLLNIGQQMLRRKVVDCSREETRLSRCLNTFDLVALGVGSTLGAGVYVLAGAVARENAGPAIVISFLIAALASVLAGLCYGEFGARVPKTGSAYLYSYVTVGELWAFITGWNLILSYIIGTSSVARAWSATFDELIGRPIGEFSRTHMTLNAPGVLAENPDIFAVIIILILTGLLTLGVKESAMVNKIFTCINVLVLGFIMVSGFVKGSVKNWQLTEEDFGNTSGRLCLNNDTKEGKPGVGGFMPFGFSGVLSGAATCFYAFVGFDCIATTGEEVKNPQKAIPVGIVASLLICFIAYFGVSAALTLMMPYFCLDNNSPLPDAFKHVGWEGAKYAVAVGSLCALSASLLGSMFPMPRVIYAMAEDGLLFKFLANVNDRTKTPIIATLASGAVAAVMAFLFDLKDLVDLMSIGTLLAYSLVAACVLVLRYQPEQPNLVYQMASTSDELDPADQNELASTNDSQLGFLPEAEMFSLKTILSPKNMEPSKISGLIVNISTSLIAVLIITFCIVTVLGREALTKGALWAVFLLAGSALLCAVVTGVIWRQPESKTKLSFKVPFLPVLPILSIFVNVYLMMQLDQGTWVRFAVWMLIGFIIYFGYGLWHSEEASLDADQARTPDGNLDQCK

For orientation: Km means the substrate concentration at which the rate is half of its maximum. Regarding CAT1 (Homo sapiens), the Michaelis constant (Km) worked out at 246 µM.

(Values after article PMC12187869, “Transport of the uremic toxin symmetric dimethylarginine (SDMA) by renal transport proteins” (Amino Acids, 2025).)
